{"source": "paper doi:10.1101/2023.07.07.548106", "about": "“CXCL17 binds efficaciously to glycosaminoglycans with the potential to modulate chemokine signalling” (bioRxiv, 2023)", "proteins": {"B1": {"name": "recombinant human CXCL17 (24-119) (natural protein, UniProt Q6UXB2 24-119, looked up)", "chain": "LNPGVARGHRDRGQASRRWLQEGGQECECKDWFLRAPRRKFMTVSGLPKKQCPCDHFKGNVKKTRHQRHHRKPNKHSRACQQFLKQCQLRSFALPL", "notes": "human CXCL17, residues Leu24-Leu119 of the 119-residue precursor (Q6UXB2), without the predicted signal peptide; the commercially available form; also called Leu24-Leu119 form of CXCL17; source: bought: R&D Systems; produced in E. coli"}}, "target": "the molecule itself", "assay": "reducing SDS-PAGE and Western blot; serial dilutions of recombinant CXCL17 (24-119), 1.25-10 uM, on reducing 12% Bis-Tris SDS-PAGE, blotted with anti-CXCL17; bands of 14 kDa and 28 kDa read as monomer and dimer; 28 kDa species at 5 uM and above"}
{"protein": "B1", "values": [{"measurement": "ratio of monomer:dimer", "value": "3 monomer:dimer"}, {"measurement": "stoichiometry N", "value": 2}]}
